The values below come from PMC4113718 (Biochemistry, 2013).

The Kd is the free concentration of one partner at which half of the binding sites on the other are occupied at equilibrium, for simple one-to-one binding. High values mean a looser complex, low ones a tighter complex.

Assay [1] has as its target T1, N-Terminal FITC labeled ubiquitin (UniProt P0CG47 1-76, FITC on the N-terminus). As to the kind of experiment: binding of a fluorescent ligand to cells.
For assay [2], the target named is T1, N-Terminal FITC labeled ubiquitin. As to the kind of experiment: binding of a fluorescent ligand to cells. This is another data set of the same source.

Read-outs that look alike come from different tables or passages of the source.

B1: CXC chemokine receptor (CXCR) 4 on BV-2 cells (receptor, mouse (endogenous in BV-2), UniProt P70658 1-359, looked up)
chain: MEPISVSIYTSDNYSEEVGSGDYDSNKEPCFRDENVHFNRIFLPTIYFIIFLTGIVGNGLVILVMGYQKKLRSMTDKYRLHLSVADLLFVITLPFWAVDAMADWYFGKFLCKAVHIIYTVNLYSSVLILAFISLDRYLAIVHATNSQRPRKLLAEKAVYVGVWIPALLLTIPDFIFADVSQGDISQGDDRYICDRLYPDSLWMVVFQFQHIMVGLILPGIVILSCYCIIISKLSHSKGHQKRKALKTTVILILAFFACWLPYYVGISIDSFILLGVIKQGCDFESIVHKWISITEALAFFHCCLNPILYAFLGAKFKSSAQHALNSMSRGSSLKILSKGKRGGHSSVSTESESSSFHSS
On to B1, for which the Kd in assay [1] amounted to 0.154 µM; in assay [2] it was 0.119 µM.
